Measurements: paper PMC13344369
Read-outs that look alike come from different tables or passages of the source.

Legend:
IFN-γ (interferon gamma) [1] = biological target: T1, IFN-γ (interferon gamma) (UniProt P01579 24-161); assay: graphene-Nafion FET biosensor
IFN-γ (interferon gamma) [2] = biological target: T1, IFN-γ (interferon gamma); assay: graphene-Nafion FET biosensor; remark: listed apart in the source

T1 sequence (P01579 24-161): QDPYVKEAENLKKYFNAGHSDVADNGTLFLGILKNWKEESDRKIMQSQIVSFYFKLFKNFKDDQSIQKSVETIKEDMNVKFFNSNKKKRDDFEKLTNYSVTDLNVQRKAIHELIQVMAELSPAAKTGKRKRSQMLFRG

## GGGGTTGTTTGTGTTGGGTGTTGTGT (ssDNA, 5'-NH2) [IFN-γ-specific aptamer]
IFN-γ (interferon gamma) [1]
  Kd: 4.39 nM
IFN-γ (interferon gamma) [2]
  Kd: 4.21 nM
